Three molecules from patent US7579186 (Amgen, dated 2009) can be followed below.

Assay [1] addresses T1, purified soluble recombinant human TβRII (extracellular domain of human TGF-β type II receptor, prepared in … (human, UniProt P37173 23-159)).
T1 construct: The range 1-159 is as printed; also called purified human soluble TβRII; purified soluble human TβRII
The assay is described as follows: SPR (Biacore X), soluble TβRII immobilised on the chip, antibody injected. Here is the method: HBS buffer (containing 0.01 M HEPES, 0.15 M NaCl, 3 mM EDTA, and 0-0.005% Detergent P20, pH 7.0) was injected through a flow cell-1 attached to the kit at a flow rate of 5 μl/min. Then, 35 μl of a solution consisting of 0.005 M NHS (N-hydroxysuccinimide) and 0.2 M EDC (N-ethyl-N'-(dimethylaminopropyl)carbodiimide) was injected to activate the carboxyl groups of the CM coated on the sensor chip.
Then, 70 μl of purified soluble human TβRII (30 μg/ml; dissolved in 10 mM sodium acetate buffer (pH 5.0)) prepared in Example 2 was injected over the chip to be immobilized on the sensor chip.
Phosphate buffer was injected to the flow cell (sensor chip) at a flow rate of 20 μl/minute, and each of the purified human anti-human TGF-β type II receptor monoclonal antibody prepared in the above Example (40 to 100 μg/ml, 60 μl) was added thereto.
For orientation: Surface plasmon resonance follows binding to a sensor surface in real time, without labels.

Assay [2] deals with T2, rat TβRII expressed on the cell surface of rat kidney-derived fibroblast cell line NRK-49F (rat, UniProt P38438 24-567).
T2 construct: whole, on cells
T2 sequence (looked up): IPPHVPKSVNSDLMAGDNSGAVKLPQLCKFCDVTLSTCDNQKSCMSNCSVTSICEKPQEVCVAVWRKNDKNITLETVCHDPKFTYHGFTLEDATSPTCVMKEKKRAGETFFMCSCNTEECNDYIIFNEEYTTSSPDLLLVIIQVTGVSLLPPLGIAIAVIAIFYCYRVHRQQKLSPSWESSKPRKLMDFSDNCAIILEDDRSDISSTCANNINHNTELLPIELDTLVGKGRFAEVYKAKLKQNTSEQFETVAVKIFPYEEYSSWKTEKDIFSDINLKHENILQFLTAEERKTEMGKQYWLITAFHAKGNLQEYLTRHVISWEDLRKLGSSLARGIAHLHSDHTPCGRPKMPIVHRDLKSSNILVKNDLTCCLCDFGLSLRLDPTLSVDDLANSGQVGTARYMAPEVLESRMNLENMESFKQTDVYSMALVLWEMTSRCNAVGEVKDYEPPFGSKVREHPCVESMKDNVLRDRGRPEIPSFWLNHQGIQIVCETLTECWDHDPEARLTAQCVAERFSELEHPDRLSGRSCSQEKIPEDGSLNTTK
The assay is described as follows: flow cytometry on rat kidney-derived fibroblast cell line NRK-49F, antibody at 5 µg/ml, biotin-labeled anti-human immunoglobulin (Fc) antibody and streptavidin-PE [d]. Here is the method: (§1) Further, similarly, the reactivity against rat TβRII of each of the various human anti-human TβRII monoclonal antibodies was analyzed by cell staining (by flow cytometry) using rat kidney-derived fibroblast cell line NRK-49F (ATCC CRL-1570) expressing rat TβRII on cell surface.
(§2) Each of the human anti-human TβRII monoclonal antibodies of the present invention or commercially available goat anti-human TβRII polyclonal antibody (R&D) (300 μl, 5 μg/ml) (diluted with phosphate buffer containing 0.1% BSA) was added to the respective cells (1 to 2 ×10^4 cells). The mixtures were incubated at 4° C. for one hour, and then centrifuged (at 1,500 rpm for three minutes). The supernatants were discarded, and the cells were washed twice with phosphate buffer. The biotin-labeled anti-human immunoglobulin (Fc) antibody (200 μl; American Qualex International Inc.) was added to the samples containing the human antibodies. The biotin-labeled anti-goat immunoglobulin antibody (200 μl; Amersham Pharmacia) was added to the samples containing the goat antibody. The samples were incubated at 4° C. for one hour.
(§3) Then, each sample was centrifuged (at 1,500 rpm for three minutes), and the supernatant was discarded. […] The samples were fluorescently analyzed with FACStar fluorescence-activated cell sorter (Becton Dickinson) (fluorescence wavelength: a DF585/42 filter, excitation wavelength: 488 nm).
In general terms: A flow cytometer gives signals particle by particle.

The target in assay [3] is T3, goat anti-human TβRII polyclonal antibody (R&D).
T3 construct: Polyclonal reagent; also called anti-human soluble TβRII polyclonal antibody (R&D); commercially available anti-human TβRII polyclonal antibody
The assay is described as follows: sandwich ELISA: goat anti-human TβRII polyclonal antibody coated, soluble TβRII titrated, detection with the biotin-labeled goat anti-human TβRII polyclonal antibody and streptavidin-β-galactosidase (fluorescence). Here is the method: Establishment of a Quantitative Method with Sandwich ELISA for Human Soluble TβRII <1-1> Establishment of a Sandwich ELISA System to Quantify Soluble Recombinant Human TβRII Goat anti-human TβRII polyclonal antibody (R&D) was diluted with phosphate buffer, and added to each well of a 96-well ELISA microplate (Corning) at a concentration of 0.1 μg/50 μl/well. The plate was incubated at room temperature for one hour to allow adsorption of the polyclonal antibody.
The assay sample was added to each well of the antibody-immobilized microplate (50 μl/well), and the plate was incubated at room temperature for one hour. Then, the microplate was washed three times with phosphate buffer containing 0.1% Tween20. Biotin-labeled goat anti-human TβRII polyclonal antibody (R&D) (diluted with phosphate buffer containing 1% BSA and 0.1% Tween20) was then added to each well at a concentration of 0.025 μg/50 μl/well. The plate was incubated at room temperature for one hour.
A calibration curve was prepared with the sandwich ELISA established in Example <1-1> using commercially available soluble recombinant human TβRII (R&D) as a standard.
(In an ELISA, binding on a coated surface is turned into a signal by an enzyme label.)

For assay [4], the target named is T2, rat TβRII expressed on the cell surface …. The assay is described as follows: flow cytometry on rat kidney-derived fibroblast cell line NRK-49F, antibody at 5 µg/ml, biotin-labeled anti-human immunoglobulin (Fc) antibody and streptavidin-PE [f]. Here is the method:
as §1, §2, §3

B1: human anti-human TβRII monoclonal antibody TR4C175 (antibody, V domains shown)
VH: EVQLVESGGGLVKPGGSLRLSCAASGFTFSSFSMNWVRQAPGKGLEWVSSISSSSSYIYYTDSVKGRFTISRDNAKNSLYLQMNSLRAEDTAVYYCARGYWGFDYWGQGTLVTVSS
VL: DIQMTQSPSSLSASVGDRVTITCRASQGIRNDLGWYQQKPGKAPKRLIYAASSLQSGVPSRFSGSASGTEFTLTISSLQPEDFATYYCLQHNSNPLTFGGGTKVEIKR
notes: Human IgG4/kappa purified from hybridoma supernatant (transgenic mouse); VH gene 3-21 (DP-77), VL gene A30; The stated signal residues must be removed from the entries; also called Clone TR4C175; TRC175
Turning to B1, in assay [1], the Kd – broadly, the equilibrium constant for the complex coming apart – turned out to be 51 nM and the koff – broadly, the rate constant with which the complex falls apart – turned out to be 0.014 s⁻¹. The binding result in assay [2] is on record as “binds”.

B2: commercially available soluble recombinant human TβRII (R&D) (receptor, UniProt P37173 23-159, looked up)
chain: TIPPHVQKSVNNDMIVTDNNGAVKFPQLCKFCDVRFSTCDNQKSCMSNCSITSICEKPQEVCVAVWRKNDENITLETVCHDPKLPYHDFILEDAASPKCIMKEKKKPGETFFMCSCSSDECNDNIIFSEEYNTSNPD
notes: Bought product; also called standard substance
In the case of B2, the EC50 (read off the curve) (in general, the midpoint of the concentration-response curve) in assay [3] was about 2 ng/mL.

B3: human anti-human TβRII monoclonal antibody TR4D455 (antibody, human IgG4, V domains shown)
VH: EVQLVQSGAEVKKPGESLKISCKGSGYSFTSYWIGWVRQMPGKGLEWMGIIYPGDSDTRYSPSFQGQVTISADKSISTAYLQWSSLKASDTAMYYCARVGGCSGGSCYLWGQGNLVTVSS
VL: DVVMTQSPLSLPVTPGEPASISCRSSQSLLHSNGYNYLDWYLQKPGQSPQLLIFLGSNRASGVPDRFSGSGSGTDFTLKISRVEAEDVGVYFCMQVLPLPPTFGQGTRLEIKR
notes: Human IgG4/kappa purified from hybridoma supernatant; VH gene 5-51 (DP-73), VL gene A19 (DPK-15); The stated signal residues must be removed from the entries; also called Clone TR4D455
On to B3, for which, in assay [1], the equilibrium dissociation constant (Kd) came out at 3.4 nM and the koff turned out to be 0.00012 s⁻¹. Moreover, the binding result in assay [4] was “binds”.
